Assay: yeast display, Sf9 membrane polyspecificity reagent, FACS + sequencing; frameworks hold sequencing errors
How it was run: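 Galactose-induced (36–48 hours) yeast carrying a synthetic nanobody display library were exposed to 10% biotinylated, detergent-solubilized Sf9 membrane reagent at 4 °C for 1 hour. FACS followed streptavidin microbead enrichment, using low and high (top ~1%) gates for expression (anti-HA) and reagent binding (streptavidin). Colony PCR, MiSeq 2 × 250 sequencing and CDR-length filtering followed. Labels for polyreactivity reflect the gate of origin.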

| Sequence | polyreactivity (PSR sort gate) |
| --- | --- |
| QVQLVESGGGLVQAGGSLRLSCAASGRIFGWYTMGWYRQAPGKERELVADINFGGSTYYADSVKGRFTISRDNAKNTVYLQMNSLTPEDTAVYYCNADYSVYIIADEYDYCGQGTQVTVSS | low polyreactivity |
| QVQLVESGGGLVQAGGSLRLSCAASGRIFGYAMGWYRQAPGKERELVAAITSSGGRTYYADSVKGRFTISRDNVKNTVYLQMNSLKPVDTAVYYCAKKWPVYRSYDYWGQGTQVTVSS | high polyreactivity |
| QVQLVESGGGLVQAGGSLRLSCAASGRIFGYIAMGWYRPAPGKERELVAAISWSGGSTYYADSVKGRFTISRDNAKNTVYLQMNSLKPEDTAVYYCAADSQDGYFYWGQGTQVTVSS | low polyreactivity |
| QVQLVESGGGLVQAGGSLRLSCAASGRIFGYNAMGWYRQAPGKERELVAAIRGGGSTYYADSVKGRFTISRDNAKNSVYLQMYSLKPEDSAFYFCAATSYTYVLSPYRGDYWGQGTQVNVSS | high polyreactivity |
| QVQLVESGGGLVQAGGSLRLSCAASGRIFGYNAMGWYRQAPGKERELVASITSAASTYYADSVKGRFTISRDNAKNTVYLQMNSLKPEDTAVYYCAASAYSALFYWYDYWGQGTQVTVSW | high polyreactivity |
| QVQLVESGGGLVQAGGSLRLSCAASGRIFGYNAMGWYRQATGNERELVAAITNGGSTNYADSVKGRFTISRDNAKNTVYLQMNSLKPEDTAVYYCAVKWYPPGHDYWGQGTQVTVSS | low polyreactivity |
| QVQLVESGGGLVQAGGSLRLSCAASGRIFGYNTMGWYRQAPGKERELVAAINSGGRTYYADSVKGRFTISRDNAKNTVYLQMNSLKPEDTAVYYCAKPGLYFATFKKYDYWGQGTQVTVSS | high polyreactivity |
| QVQLVESGGGLVQAGGSLRLSCAASGRIFGYNTMGWYRQPPGKERELVAAITSTGRTYYADSVKGRFTISRDNAKNTVYLQMNSLKPEDTAVYYCNARSSYGWPKYYYWGQGTQVTVSS | high polyreactivity |
| QVQLVESGGGLVQAGGSLRLSCAASGRIFGYYAMGWYRPAPGKERELVAGISARGGSTYYADSVKGRFTISRDNAKNTVYLQMNSLKPEDTAVYYCNKTRHDWFRTDSIRESAEYDYWGQGTQVTVSS | low polyreactivity |
| QVQLVESGGGLVQAGGSLRLSCAASGRIFGYYAMGWYRQAPGKERELVAAIRSSGGSTYYADSVKGRFTISRDNAKNTVYLQMNSLKPEDTAVYYCNKGAAWRPFFGPYYNYEYWGQGTQVTVSS | high polyreactivity |
| QVQLVESGGGLVQAGGSLRLSCAASGRIFGYYAMGWYRQAPGKERELVAAISSSGGSTYYADSVKGRFTISRDNAKNTVYLQMNSLKPEDTAVYYCAAGGPRVNGYGRAYDYWGQGTQVTVSS | high polyreactivity |
| QVQLVESGGGLVQAGGSLRLSCAASGRIFGYYAMGWYRQAPGKERELVAAISWTGASTYYADSVKGRFTISRDNAKNTVYLQMNSLKPEDTAVYYCAVDRGLDYYWGQGTQVTVSS | high polyreactivity |
| QVQLVESGGGLVQAGGSLRLSCAASGRIFGYYAMGWYRQAPGQERELVAAITRNGGSTYYADSVKGRFTISRDNAKNTVYLQMTSLKPEDTAVYYCAATKGGGRGYWGQGTQVTVSS | high polyreactivity |
| QVQLVESGGGLVQAGGSLRLSCAASGRIFGYYGMGWYRQAPGKERELVAGITSSGGSTYYADSVKGRFTISRDNAKNTVYLQMNSLKPEDTAVYYCNVRRYGSRFDYWGQGTQVTVSS | high polyreactivity |
| QVQLVESGGGLVQAGGSLRLSCAASGRIFGYYTMGWYRQAPGKERELVAAINGRGTSTYYADSVKGRFTISRDNAKNTVYLQMNSLKPEDTAVYYCAARYTRTVGYDYWGQGTQVTVSS | high polyreactivity |
| QVQLVESGGGLVQAGGSLRLSCAASGRIFGYYVMGWYRQAPGKERELVATISSGGSTYYADSVKGRFTISRDNAKNTVYLQMNSLKPEDTAVYYCNTDRYHRVDFEYWGQGTQVTVSS | high polyreactivity |

| Sequence | polyreactivity (PSR sort gate) |
| --- | --- |
| QVQLVESGGGLVQAGGSLRLSCAASGRIFHGYAMGWYRQAPGKERELVATIRSGGGTYYADSVKGRFTISRDNAKNSVYLQINSLKPDDTAVYYCNAQSSYSYFSGYDYWGQGSQVTVSS | low polyreactivity |
| QVQLVESGGGLVQAGGSLRLSCAASGRIFHHNAMGWYRQAPGKERELVATITKSGGSTYADSVKGRFTISRDNAKNTVYLQMNSLKPEDTAVYYCDADVTNRGTWVIYGYYYWGQGTQVTVSS | low polyreactivity |
| QVQLVESGGGLVQAGGSLRLSCAASGRIFHIYAMGWYRPAPGKERELVAAIRSSGGSTYYADSVKGRFTISRDNAMNTVYLQMNSLKPEDTAVYYCNKYVAYDYWGQGTQVTVSS | low polyreactivity |
| QVQLVESGGGLVQAGGSLRLSCAASGRIFHLYAMGWYRQAPGKERELVAAITFSGGSTYYADSVKGRFTISRDNAKNTVYLQMNSLKPEDTAVYYCAKRSFYLFSSRLPFKYDYGGQGTQVTVSS | low polyreactivity |
| QVQLVESGGGLVQAGGSLRLSCAASGRIFHPNVMGWYRQAPGKERELVAAISSGGSTYYADSVKGRFTISRDNAKNTVYLQMNSLKPEDTAVYYCATRIRSGSYPYPRYDYWGQGTQVTVSS | high polyreactivity |
| QVQLVESGGGLVQAGGSLRLSCAASGRIFHQNTMGWYRQAPGKERELVAAISATGGGTNYADSVKGRFTISRDNAKNTVYLQMNSLKPEDTAVYYCAVRPKTSWYSWYYWGQGTQVTVSS | low polyreactivity |
| QVQLVESGGGLVQAGGSLRLSCAASGRIFHRNAMGWYRQAPGKERELVARITRSGTSTYYADSVKGRFTISRDNAKNTVYLQMNSLKQEDTAVYYCAADNASPSLGEYNYWGQGTQVTVSS | low polyreactivity |
| QVQLVESGGGLVQAGGSLRLSCAASGRIFHRNAMGWYRQAPGQERELVARITRSGTSTYYADSVKGRFTISRDNAKNTVYLQMNSLKPEDTAVYYCAADNASPSLGEYNYWGQGTQVTVSS | low polyreactivity |
| QVQLVESGGGLVQAGGSLRLSCAASGRIFHSNAMGWYRQAPGKESELVADINRDGSTNYADSVKGRFTISRDNAKNTVYLQMNSLKPEDTAVYYCAKPYYSWPRYNHFEYWGQGTQVTVSS | low polyreactivity |
| QVQLVESGGGLVQAGGSLRLSCAASGRIFHWYAMGWYRQAPGKERELVAAIRWTGGSTYYADSVKGRFTISRDNAKNTVYLQMNSLKPEDTAVYYCAAKGYTGIFYEMDYWGQGTQVTVSS | low polyreactivity |
| QVQLVESGGGLVQAGGSLRLSCAASGRIFHWYTMGWYRQAPGKERELVATITDGGSTYYADSVKGRFTISRDNAKNTVYLQMNSLKPEDTAVYYCAARKIGTRRLRYPYYIFGYWGQGTQVTVSS | high polyreactivity |
| QVQLVESGGGLVQAGGSLRLSCAASGRIFHYNAMGWYRQAPGKEREFVASISGSGGRTYYADSVKGRFTISRDNAKNTVYLQMNSLKPEDTAVYYCAASYYGHRYWGQGTQVTVSS | low polyreactivity |
| QVQLVESGGGLVQAGGSLRLSCAASGRIFHYYAMGWYRQAPGKERELVAAINKSGGRTYYADSVKGRFTISRDNAKNTVYLQMNSLKPEDTAVYYCAADVPGVTTSYAPYDSDYWGQGTQVTVSS | high polyreactivity |
| QVQLVESGGGLVQAGGSLRLSCAASGRIFHYYAMGWYRQAPGKERELVAAISNTDGSTYYADSVKGRFTISRDNAKYTVYLQMNSLKPEDTAVYYCAADSLGALYRGNYPYGYWGQGTQVNVSS | high polyreactivity |
| QVQLVESGGGLVQAGGSLRLSCAASGRIFHYYAMGWYRQAPGKERELVAASTFRGGNTYADSVKGRFTISRDNAKNTVYLQMNSLKPEDTAVYYCADSRLSGYYSRYGYWGQGTQVTVSS | high polyreactivity |
| QVQLVESGGGLVQAGGSLRLSCAASGRIFHYYAMGWYRQAPGKERELVAGITSGGSTYYADSVKGRFTISRDNAKNTVYLQMNSLKPEDTAVYYCATTRYGGSRRYRPYDRERDYWGLGTQVTVSS | low polyreactivity |
